Laboratory results as given in patent US20120156203A1.

Target: human IL13 (human) (UniProt P35225)
Test: cell-based or functional assay

Chain of human IL13 (human) (P35225 other isoform, or with tags, fused parts or gaps limits assumed): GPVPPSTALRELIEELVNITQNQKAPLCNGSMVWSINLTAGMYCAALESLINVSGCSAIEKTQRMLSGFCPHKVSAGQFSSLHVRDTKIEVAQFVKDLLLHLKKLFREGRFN

concentration for complete inhibition of IL13-suppressed CD14 expression on human monocytes (0.813 nM IL13): > 80 nM
Substance: anti-IL13 MAb JES10-5A2 (BD Biosciences-Pharmingen) (antibody)
